These are literature values, as cited in patent US11040110B2, “Polypeptide complex comprising non-peptidyl polymer having three functional ends” (HANMI SCIENCE CO., LTD., priority 2008, dated 2021).

The conditions of this series: Osborn et al. 2002.

Take interferon alpha: the serum half-life is 5 h.
